Article PMC8183112

Tests used:
[1] = western blot, relative β1 level; details: glycan lost; control: wild-type β1, untreated
[2] = whole-cell patch clamp, 400 nM martentoxin, 300 nM Ca2+; details: glycan lost; control: wild-type BK (α+β1)
[3] = whole-cell G-V curve, Boltzmann fit, 300 nM Ca2+; details: glycan lost; control: wild-type BK (α+β1)
[4] = whole-cell patch clamp, 400 nM martentoxin, no cytoplasmic Ca2+; details: glycan lost; control: wild-type BK (α+β1)
[5] = activation time constant, single exponential fit, +50 to +120 mV; details: glycan lost; control: wild-type BK (α+β1)
[6] = whole-cell patch clamp, 100 nM IbTx, 300 nM Ca2+; details: glycan lost; control: wild-type BK (α+β1)
[7] = whole-cell patch clamp, current density; details: glycan lost; control: wild-type BK (α+β1)
[8] = whole-cell patch clamp, 400 nM MarTX, no cytoplasmic Ca2+; details: glycan lost; control: untreated wild-type BK (α+β1)
[9] = whole-cell patch clamp, 100 nM IbTX, 300 nM Ca2+; details: glycan lost; control: untreated wild-type BK (α+β1)
[10] = whole-cell patch clamp, 400 nM IbTX, 300 nM Ca2+; details: glycan lost; control: untreated wild-type BK (α+β1)
[11] = whole-cell patch clamp, 100 nM MarTX, no cytoplasmic Ca2+; details: glycan lost; control: untreated wild-type BK (α+β1)

Protein	expression_or_secretion [1]	other: toxin enhancement of channel current, other: fractional current remaining (If) [2]	other: voltage dependence of activation, other: V1/2 [3]	other: toxin inhibition of channel current, other: fractional current remaining (If) [4]	other: channel activation kinetics [5]	other: toxin inhibition of channel current, other: fractional current remaining (If) [6]	other: channel current [7]	other: toxin inhibition of channel current, other: fractional current remaining (If) [8]	other: toxin inhibition of channel current, other: fractional current remaining (If) [9]	other: toxin inhibition of channel current, other: fractional current remaining (If) [10]	other: toxin inhibition of channel current, other: fractional current remaining (If) [11]
BK channel β1 subunit: N80Q/N142Q (protein) parent chain: MVKKLVMAQKRGETRALCLGVTMVVCAVITYYILVTTVLPLYQKSVWTQESKCHLIETNIRDQEELKGKKVPQYPCLWVNVSAAGRWAVLYHTEDTRDQNQQCSYIPGSVDNYQTARADVEKVRAKFQEQQVFYCFSAPRGNETSVLFQRLYGPQALLFSLFWPTFLLTGGLLIIAMVKSNQYLSILAAQK	no change	abolishes, 1.04 ± 0.02 vs 1.13 ± 0.01	no change, 65.35 ± 1.48 vs 66.52 ± 1.47, slope 22.89 ± 1.24 vs 22.55 ± 1.21	increases, 0.72 ± 0.099 vs 0.97 ± 0.018	decreases	increases, 0.46 ± 0.04 vs 0.92 ± 0.01	no change	–	–	–	–
BK channel β1 subunit: tunicamycin (protein) parent chain: MVKKLVMAQKRGETRALCLGVTMVVCAVITYYILVTTVLPLYQKSVWTQESKCHLIETNIRDQEELKGKKVPQYPCLWVNVSAAGRWAVLYHTEDTRDQNQQCSYIPGSVDNYQTARADVEKVRAKFQEQQVFYCFSAPRGNETSVLFQRLYGPQALLFSLFWPTFLLTGGLLIIAMVKSNQYLSILAAQK	no change	–	–	–	–	–	–	–	–	–	–
BK channel β1 subunit: N80A/N142A (protein) parent chain: MVKKLVMAQKRGETRALCLGVTMVVCAVITYYILVTTVLPLYQKSVWTQESKCHLIETNIRDQEELKGKKVPQYPCLWVNVSAAGRWAVLYHTEDTRDQNQQCSYIPGSVDNYQTARADVEKVRAKFQEQQVFYCFSAPRGNETSVLFQRLYGPQALLFSLFWPTFLLTGGLLIIAMVKSNQYLSILAAQK	no change	abolishes, 0.99 ± 0.02 vs 1.13 ± 0.01	–	increases, 0.71 ± 0.064 vs 0.97 ± 0.018	–	increases, 0.46 ± 0.04 vs 0.92 ± 0.01	no change	–	–	–	–
BK channel β1 subunit: PNGase F (protein) parent chain: MVKKLVMAQKRGETRALCLGVTMVVCAVITYYILVTTVLPLYQKSVWTQESKCHLIETNIRDQEELKGKKVPQYPCLWVNVSAAGRWAVLYHTEDTRDQNQQCSYIPGSVDNYQTARADVEKVRAKFQEQQVFYCFSAPRGNETSVLFQRLYGPQALLFSLFWPTFLLTGGLLIIAMVKSNQYLSILAAQK	–	–	–	–	–	–	–	increases, 0.63 ± 0.02 vs 1.00 ± 0.03	increases, 0.54 ± 0.05 vs 0.89 ± 0.01	increases, 0.43 ± 0.06 vs 0.65 ± 0.03	increases, 0.83 ± 0.03 vs 1.00 ± 0.03
